Test results from US20240034815A1 (Xencor, published 2024).
Changes are numbered by the printed parent chain. Numbers in names are those of the source.

B1: GPC3-A H1.1_L1.69 in the 1+1 Fab-scFv-Fc bsAb format (bispecific antibody)
heavy: QVQLVQSGAEVKKPGASVKVSCKASGYTFTDYEMHWVRQAPGQGLEWMGALEPKTGDTAYSQKFQGRVTMTADKSISTAYMELSRLRSDDTAVYYCTRFYSYTYWGQGTLVTVSSASTKGPSVFPLAPSSKSTSGGTAALGCLVKDYFPEPVTVSWNSGALTSGVHTFPAVLQSSGLYSLSSVVTVPSSSLGTQTYICNVNHKPSDTKVDKKVEPKSCDKTHTCPPCPAPPVAGPSVFLFPPKPKDTLMISRTPEVTCVVVDVKHEDPEVKFNWYVDGVEVHNAKTKPREEEYNSTYRVVSVLTVLHQDWLNGKEYKCKVSNKALPAPIEKTISKAKGQPREPQVYTLPPSREEMTKNQVSLTCDVSGFYPSDIAVEWESDGQPENNYKTTPPVLDSDGSFFLYSKLTVDKSRWEQGDVFSCSVMHEALHNHYTQKSLSLSPGK
scFv-Fc: not shown
light: DVVMTQSPLSLPVTLGQPASISCRSSQSLVHSNANTYLHWYQQRPGQSPRLLIYQVSNRFSGVPDRFSGSGSGTDFTLKISRVEAEDVGVYFCSQNTHVPPTFGSGTKLEIKRTVAAPSVFIFPPSDEQLKSGTASVVCLLNNFYPREAKVQWKVDNALQSGNSQESVTEQDSKDSTYSLSSTLTLSKADYEKHKVYACEVTHQGLSSPVTKSFNRGEC
notes: also called [GPC3]H1.1_L1.69
B2: GPC3-A H1.1_L1.73 in the 1+1 Fab-scFv-Fc bsAb format (bispecific antibody)
heavy: B1 heavy
scFv-Fc: not shown
light: B1 light with A34K, Q55Y
notes: also called [GPC3]H1.1_L1.73
B3: XENP21971_GPC3-A_H1_L1 (bispecific antibody)
heavy: B1 heavy with E52D
scFv-Fc: not shown
light: B1 light with A34G, Q55K
notes: the sheet prints H1_L1; copies: 1 + 1 + 1
B4: XENP34364_GPC3-A_H1.1__L1.29 (bispecific antibody)
heavy: B1 heavy
scFv-Fc: not shown
light: B1 light with A34G
notes: Another XENP number than XENP36941, which has the same GPC3 Fv
B5: XENP34365_GPC3-A_H1.1__L1.16 (bispecific antibody)
heavy: B1 heavy
scFv-Fc: not shown
light: B1 light with N33S, A34G, Q55K, N96S
notes: Another XENP number than XENP35843, which has the same GPC3 Fv
B6: XENP34368_GPC3-A_H1.1__L1.31 (bispecific antibody)
heavy: B1 heavy
scFv-Fc: not shown
light: B1 light with A34G, Q55Y
notes: Another XENP number than XENP36140, which has the same GPC3 Fv; copies: 1 + 1 + 1
B7: XENP36934 H1.1_L1.68 (bispecific antibody)
heavy: B1 heavy
scFv-Fc: not shown
light: B1 light with N33Y, A34G
notes: also called [GPC3]H1.1_L1.68; VL N28Y K50Q; copies: 1 + 1 + 1
B8: XENP36936 H1.1_L1.70 (bispecific antibody)
heavy: B1 heavy
scFv-Fc: not shown
light: B1 light with A34K
notes: also called [GPC3]H1.1_L1.70; VL G29K K50Q; copies: 1 + 1 + 1
B9: XENP36941 (GPC3-A H1.1_L1.29 formatted as 1+1 Fab-scFv-Fc with CD3 High-Int #1 scFv) (bispecific antibody)
heavy: B1 heavy
scFv-Fc: not shown
light: B1 light with A34G
notes: 1+1 Fab-scFv-Fc, human IgG1 heterodimeric backbone; treated as one molecule; also called [GPC3]H1.1_L1.29
B10: GPC3-A H1.1_L1.6 formatted as 1+1 Fab-scFv-Fc with CD3 High-Int #1 scFv (bispecific antibody)
heavy: B1 heavy
scFv-Fc: not shown
light: B1 light with A34T, Q55K
notes: 1+1 Fab-scFv-Fc: VH-CH1-hinge-CH2-CH3 chain and VL-CL light chain form the GPC3 Fab, plus an scFv-Fc chain; also called [GPC3]H1.1_L1.6
B11: XENP35843 (GPC3-A H1.1_L1.16 formatted as 1+1 Fab-scFv-Fc with CD3 High-Int #1 scFv) (bispecific antibody)
heavy: B1 heavy
scFv-Fc: not shown
light: B1 light with N33S, A34G, Q55K, N96S
notes: 1+1 Fab-scFv-Fc, human IgG1 heterodimeric backbone; treated as one molecule; also called [GPC3]H1.1_L1.16

biological target: T1, His-tagged human GPC3 (human, UniProt P51654 25-559, limits assumed); assay: affinity label of the GPC3 binding domain; Octet (BLI) of Example 2
T1 construct: Captured on HIS1K sensors in the Octet assay; also called human GPC3 antigen; Glypican 3; not shown: His tag
T1 sequence (P51654 25-559 limits assumed): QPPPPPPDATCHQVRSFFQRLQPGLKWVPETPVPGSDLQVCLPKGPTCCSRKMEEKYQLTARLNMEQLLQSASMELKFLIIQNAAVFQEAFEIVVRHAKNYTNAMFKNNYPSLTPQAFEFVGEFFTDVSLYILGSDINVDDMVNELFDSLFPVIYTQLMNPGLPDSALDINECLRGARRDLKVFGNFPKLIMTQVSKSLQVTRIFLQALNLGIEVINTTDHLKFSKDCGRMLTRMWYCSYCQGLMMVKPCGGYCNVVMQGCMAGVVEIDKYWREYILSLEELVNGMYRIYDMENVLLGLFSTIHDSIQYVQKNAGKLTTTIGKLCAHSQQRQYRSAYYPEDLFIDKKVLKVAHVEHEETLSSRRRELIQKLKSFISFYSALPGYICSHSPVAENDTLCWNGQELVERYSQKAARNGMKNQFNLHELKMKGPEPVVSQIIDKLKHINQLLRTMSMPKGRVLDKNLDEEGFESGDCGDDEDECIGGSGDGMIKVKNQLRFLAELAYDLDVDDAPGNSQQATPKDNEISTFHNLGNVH
Experimental: (§1) After humanization, GPC3 binding arms were engineered with single point mutations in the variable light domain with the aim to create a ladder of GPC3 binding affinity, illustrative sequences for which are depicted in FIG. 13. 73 variable light domain variants were engineered and paired with GPC3-A H1.1 (see Example 3C for description of GPC3-A H1.1 variant). The GPC3-A variants were engineered in the 1+1 Fab-scFv-Fc bsAb format and binding for GPC3 antigen was measured using Octet, a BioLayer Interferometry (BLI)-based method. Experimental steps for Octet generally include the following: Immobilization (capture of ligand to a biosensor); Association (dipping of ligand-coated biosensors into wells containing the analyte); and Dissociation (returning of biosensors to well containing buffer). For ease of clinical development (e.g. by investigating the therapeutics in model animals), it is useful for the binding domains to be cross-reactive for cynomolgus antigen; therefore, binding to both human and cynomolgus GPC3 antigen were investigated. His-tagged human and cynomolgus GPC3 were captured on HIS1K sensors then dipped into multiple concentrations of the bispecific antibodies. The resulting dissociation constant (KD) are depicted in FIG. 23.

Binder | Kd
B1 | 70 nM
B2 | 400 nM

biological target: T2, His-tagged cynomolgus GPC3 (cynomolgus, UniProt A0A2K5VK50 24-558); assay: Octet (BLI), His-tagged GPC3 captured on HIS1K sensors, bsAb as analyte
T2 construct: Captured on HIS1K sensors in the Octet assay; also called cynomolgus GPC3 antigen; cyno GPC3; not shown: His tag
Experimental: as §1

Binder | Kd
B3 | 4 nM
B4 | 73 nM
B5 | 100 nM
B6 | 485 nM

biological target: T1, His-tagged human GPC3; assay: as above
Experimental: as §1

Binder | Kd
B3 | 4 nM
B4 | 70 nM
B5 | 93 nM
B6 | 464 nM

biological target: T2, His-tagged cynomolgus GPC3; assay: binding assay not named for this figure; Octet (BLI) is the method of Example 2B
Experimental: as §1

Binder | Kd
B1 | 150 nM
B2 | 550 nM
B7 | 370 nM
B8 | 130 nM

biological target: T1, His-tagged human GPC3; assay: as above
Experimental: as §1

Binder | Kd
B1 | 150 nM
B2 | 477 nM
B7 | 370 nM
B8 | 130 nM

biological target: T1, His-tagged human GPC3; assay: Octet (BLI); His-tagged GPC3 captured on HIS1K sensors, bsAb in solution
Experimental: as §1

Binder | Kd
B9 | 70 nM
B10 | 4 nM
B11 | 100 nM
